In the supplement of paper PMC12042874:
± gives the uncertainty stated by the source.

Assay: amyloid nucleation score (Sup35N fusion, yeast selection) (log enrichment); library NNK2; higher = more nucleation; inactive = no reads after selection
Method in brief: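 Growth for 7 days at 30°C on medium lacking adenine and uracil followed a 24-hour induction with 100 μM copper sulfate of psi-negative yeast expressing peptides of 20 random codons fused to Sup35N. Input and output plasmid inserts were sequenced with Illumina, and sequences with under 100 input reads were excluded. Nucleation score is the DiMSum log enrichment of output over input reads, centred on the mode score of non-aggregating sequences.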

Row | Substance | amyloid nucleation score
1 | SRFLCVKTTVVALI | 4.66 ± 0.047
2 | SRFLDGSLLPKTNGLSQEMV | 0.122 ± 1.1
3 | SRFRA | 0.357 ± 0.27
4 | SRGLSGNSSASLEKLNRL | 0.072 ± 0.63
5 | SRHWLNDVIFLSHSTSGQHW | 1.49 ± 0.18
6 | SRIFVRYTLAKLVDFSCPES | 0.61 ± 0.46
7 | SRLCFWSVGFNKTQQVEPVR | -1.33 ± 1.1
8 | SRLMCNNVTSLLVFVFIGHK | -0.337 ± 0.74
9 | SRMFVFNVGVIEFWKLGGYN | -0.716 ± 0.64
10 | SRPTKYSKWILMPPCY | inactive
11 | SRRRLVPSLLTRIISGVRGR | -0.877 ± 0.55
12 | SRSLNWPSAGKLKSDYEFVV | -0.675 ± 0.3
13 | SRSSG | 5.17 ± 0.058
14 | SRSVFIRSLAVITVIWILT | 1.34 ± 0.13
15 | SRTWAARNFLFRWVSPANFT | 0.119 ± 0.74
16 | SRVFRSRMDGPFQWSGMGEV | 2.24 ± 0.076
17 | SRVVGNRMYRSGLSRSSLLH | -0.263 ± 0.65
18 | SRVWFVNPAPYPADTSELAK | 0.509 ± 0.8
19 | SRWLSQSPDHSWGGQTYGMS | -0.023 ± 0.63
20 | SSAFFSFNWADKWCMLMCLV | -1.41 ± 1.1
21 | SSCIFYFTIRTNQTYLGI | 6.93 ± 0.06
22 | SSCRTSSWLALVWFGLGVSG | 0.177 ± 0.19
23 | SSFCKPLKVRWLGVIVQLSV | -0.872 ± 0.45
24 | SSFGGGCSVCRMWGGFLLDG | 4.4 ± 0.059
25 | SSFLDRAIGGEAGRCSVWMK | 0.856 ± 0.24

Row | Substance | amyloid nucleation score
26 | SSFYTSGYPQNVSARGLGAE | 0.627 ± 0.56
27 | SSGCS | -0.021 ± 0.5
28 | SSGFPE | -0.846 ± 0.42
29 | SSGLTRFKYRRLRSIVFELG | inactive
30 | SSIINMTDAVGWFLELKNGE | 0.177 ± 0.37
31 | SSIVSSPVCPLCGWGWF | 5.55 ± 0.069
32 | SSLCGNCLGVEVVEQVISCR | -0.12 ± 0.23
33 | SSLGSSGAEKSRIGYIVIER | 0.261 ± 0.77
34 | SSMDFVHCSWAVWHLGSFLC | -1.01 ± 0.78
35 | SSNVK | 0.685 ± 0.4
36 | SSPGSCIMSENWVNSSWRFT | inactive
37 | SSRVDLLLLVETAFARSRIW | 3.31 ± 0.08
38 | SSRVDVVISHQREAIGSRQC | 5.11 ± 0.077
39 | SSSEFDPSSGSCLYT | -0.847 ± 0.34
40 | SSSVSRPRCFFRSWFYIHVR | -1.21 ± 0.49
41 | SSVHPPEPRINFFSSDGCIA | inactive
42 | SSVIHYRT | 0.038 ± 0.8
43 | SSWAGVMYIVHNTKVHSYTI | 3.19 ± 0.064
44 | SSWVFITFSYVMRSQVYHLK | -1.12 ± 0.49
45 | SSYGWSGTC | -0.833 ± 0.63
46 | SSYRRLTQSTLRVDRHRLFY | 0.732 ± 0.4
47 | STALAFYP | inactive
48 | STCFLTFVY | inactive
49 | STDYMGPAY | -0.617 ± 0.37
50 | STESARSKRGMSSPMNSIRA | 0.029 ± 0.32

Row | Substance | amyloid nucleation score
51 | STMSFFSIGKLPEIVVGDSY | -1.24 ± 0.75
52 | STNYQLSLFR | 3.96 ± 0.086
53 | STPIHDIFTPTLDRV | -0.08 ± 0.5
54 | STQRIEDIEIVEQKCPACIG | 0.754 ± 0.3
55 | STSFIL | -0.718 ± 0.76
56 | STSLVTIPCGGFGFKYSANP | 0.171 ± 0.33
57 | STSQWYRVLVRVVCSPM | 0.331 ± 0.4
58 | STSSNGSEYHCLSI | 1.05 ± 0.44
59 | STSSSLAR | 0.867 ± 0.22
60 | STTLSEIMIYAVTGG | -0.45 ± 0.31
61 | STTWNSLELTTDNAAGAAII | 2.95 ± 0.09
62 | STVKVLVPEVHWSKATPRNY | 2.99 ± 0.14
63 | STVTELLRYPAHNFGEVHIL | 4.702 ± 0.047
64 | STWDGWGFSWISFL | -0.635 ± 1
65 | STYSPSSPHMLSYPFWARTP | -0.269 ± 0.76
66 | SVCSKSGNFYGVVNMGL | -0.161 ± 0.79
67 | SVFCCLYLYSG | 9.035 ± 0.023
68 | SVFLSNLFSYRSADNYGMAR | inactive
69 | SVFVNCNHWYIYSPWPSKRN | 8.715 ± 0.047
70 | SVGQMQLT | 0.707 ± 0.35
71 | SVIISVVD | -0.851 ± 0.35
72 | SVIRSCVNIDSLVKVEWGAS | 6.717 ± 0.052
73 | SVKRHPFRTVKLGVSVLLWV | 1 ± 0.18
74 | SVLAAP | inactive
75 | SVLKYS | -0.334 ± 0.63

Row | Substance | amyloid nucleation score
76 | SVLMDYNSKWWDRMSSFIRP | -0.272 ± 0.48
77 | SVQKIEIMYYRRKTGVYEFE | 3.4 ± 0.055
78 | SVYLGCRCHVMFVRLTVAFV | inactive
79 | SVYNWYIIPANCEQDLCM | 5.54 ± 0.095
80 | SVYQVRLLFGDLRANKAVVS | -0.494 ± 0.56
81 | SWAQRCDGGMYMRDCWLMGS | 0.361 ± 0.33
82 | SWFSSNFFFY | 5.27 ± 0.058
83 | SWFVRLGTRNWYTLRRVVIG | -0.315 ± 0.29
84 | SWGTRV | inactive
85 | SWGYNRF | inactive
86 | SWKGHIISSAHQQLESPSLW | 0.345 ± 0.23
87 | SWKWYRS | 0.157 ± 1
88 | SWMIYLCRVGTITRMQDWLW | -0.445 ± 0.35
89 | SWNKGIHGGSTANCWFIVIK | 0.029 ± 0.61
90 | SWPVRFQLNATGSPVGRLWT | -0.334 ± 0.76
91 | SWWTMWLLTRLRNSSSWGMT | 0.011 ± 0.23
92 | SYCILVLNL | 6.445 ± 0.045
93 | SYCTR | -0.645 ± 0.56
94 | SYCVWCLYTSLLTLGQSASI | 0.163 ± 0.33
95 | SYECPMHTLPVHSRSAYRST | 0.878 ± 0.27
96 | SYFLYLGLNPVYQWYDSFVV | 1.47 ± 0.14
97 | SYGFFMVWIEGYFLVMASRI | inactive
98 | SYHRS | 0.086 ± 0.24
99 | SYIGFVSIGSNMNRCSFDKF | -0.116 ± 0.29
100 | SYIWSECRTNMIVWASNTLK | 3.81 ± 0.063

Row | Substance | amyloid nucleation score
101 | SYMDE | 4.33 ± 0.06
102 | SYRSRVQYLCGNSMCLHAPI | 5.15 ± 0.098
103 | SYSQGD | 0.674 ± 0.53
104 | SYTGS | -0.019 ± 0.34
105 | SYTMVTLPSPSL | -0.224 ± 0.23
106 | SYVVVAPLCQCTTVSGRRGI | 1.04 ± 0.59
107 | SYYELGNDLSACYFYCHRVA | -0.253 ± 0.79
108 | SYYFGPHWRVYTAFARFRI | inactive
109 | TAIYENYCMSVMWMLVVGRI | -0.277 ± 0.3
110 | TASIDKRVTGSSREWWRSRQ | 0.357 ± 0.66
111 | TASSLCIQVGYVIFLY | 8.072 ± 0.032
112 | TCARFVGMEM | 1.22 ± 0.27
113 | TCFTSCSG | 0.263 ± 0.37
114 | TCLAKLLFCKSTSKDRV | 0.063 ± 1.1
115 | TCRLRFGCEYGQTFSCVSWA | 0.531 ± 0.64
116 | TCSCSLVFYMILARG | -0.053 ± 0.63
117 | TCSGLCYIHWACIIGKDNYM | 4.9 ± 0.087
118 | TCVQLKNAIFQVSWYILLQG | -0.322 ± 0.65
119 | TCYLGPWCPIHDTRIRPGWV | 0.698 ± 0.21
120 | TDCFQFS | 0.713 ± 0.58
121 | TDGDRFSCRVKWNRHEDQRT | 0.463 ± 0.24
122 | TDIRTSGDERWAFDSMRTGD | 0.701 ± 0.37
123 | TDLIPRQKKITLWFIS | 0.159 ± 0.53
124 | TDLNHACCSNPLSF | -0.468 ± 0.61
125 | TDLVDPGGTKHRKDS | 0.523 ± 0.53

Row | Substance | amyloid nucleation score
126 | TDVTYRNVVVSSRKFSGNRN | 8.149 ± 0.073
127 | TEQICGNMWSLYESFNFINS | -0.474 ± 1.1
128 | TESVPSWNGMKNMYEDNQLK | 1.54 ± 0.55
129 | TFAPDLS | -0.053 ± 0.56
130 | TFAVENHFFMEVLRRKVLIG | inactive
131 | TFCVRQLYLSML | 0.833 ± 0.2
132 | TFDFDNVAVYYALSGTGDSW | -0.516 ± 0.34
133 | TFDLSWLVHVPDNCCHLLCF | -0.183 ± 0.28
134 | TFFDGSCLVRLSWAQLEFLT | -0.471 ± 0.41
135 | TFFYYYCMCSRTL | 7.83 ± 0.061
136 | TFGYCISLMTLTFVH | -0.239 ± 0.28
137 | TFHRS | 1.05 ± 0.29
138 | TFIHN | -0.161 ± 0.19
139 | TFNKLYYSSVACLCRLGHSR | 9.32 ± 0.055
140 | TFRIERSVGWYCNRASYSCK | 1.02 ± 0.21
141 | TFRYFGDWNLQRGML | 0.85 ± 0.52
142 | TFSLLGL | 4.1 ± 0.064
143 | TFSTYSFLFVKTVI | -0.417 ± 0.2
144 | TFSVSSYRNLP | -0.06 ± 0.79
145 | TFVGVLNQTNH | 2.73 ± 0.13
146 | TFVITLNGHSCQVGTITPRN | 8.012 ± 0.04
147 | TFVKRIRYCFYLS | 6.386 ± 0.023
148 | TFWLIRTSHRGYRYEKVCTY | -0.017 ± 0.49
149 | TGALVNM | 0.13 ± 1.1
150 | TGFMVTFASST | 0.02 ± 0.22

Row | Substance | amyloid nucleation score
151 | TGHRTRVQTELLAFIAQVN | -0.526 ± 0.63
152 | TGHWMGPSDYRQRVCH | inactive
153 | TGLIGEPYGWDRSTTGF | 0.17 ± 0.43
154 | TGVKRIMSGSIIFPFLAVSF | -0.751 ± 1.1
155 | THIAVIGISGTDEENLKLGR | 6.439 ± 0.026
156 | THIFVWNHFNLLRYTTKFLP | -0.304 ± 0.4
157 | THLSWQKMWFLIVHALKICL | inactive
158 | THLWVNSFMIDPFRSESAAT | -0.499 ± 0.54
159 | THPEFSIPIGRHHYGG | -0.836 ± 0.29
160 | THWMKRRVVA | 1.33 ± 0.17
161 | TIACLEINPHAMSDYMRLCH | -0.842 ± 0.49
162 | TICGSCT | 0.045 ± 0.79
163 | TIDFWVRFYVRFYSRDGFYY | -2.33 ± 0.78
164 | TIDKISCNIRLRPVYMLLNA | 0.342 ± 0.56
165 | TIEGALSSS | 0.931 ± 0.22
166 | TIFSNFGSMSLIGHGIEQVI | -1.39 ± 0.76
167 | TIILG | -0.637 ± 0.27
168 | TIMNYTGCYFGPVGPDRDLG | 6.824 ± 0.042
169 | TIPVRPTMEYCTQLLTLLQ | 0.293 ± 0.47
170 | TIQGLFRFSADVRTCAFMGS | 2.33 ± 0.15
171 | TISFELSGMGIPSLWICGSR | 0.252 ± 0.65
172 | TITILV | 0.089 ± 0.23
173 | TIVYWSTTRTTAPGDDRESV | 5.31 ± 0.062
174 | TIYRSSSNNSQEHSLNLMFG | inactive
